Literature values, collected in PMC9558565.

Target: p53p (Homo sapiens) (UniProt P04637)
Sequence (P04637 whole entry): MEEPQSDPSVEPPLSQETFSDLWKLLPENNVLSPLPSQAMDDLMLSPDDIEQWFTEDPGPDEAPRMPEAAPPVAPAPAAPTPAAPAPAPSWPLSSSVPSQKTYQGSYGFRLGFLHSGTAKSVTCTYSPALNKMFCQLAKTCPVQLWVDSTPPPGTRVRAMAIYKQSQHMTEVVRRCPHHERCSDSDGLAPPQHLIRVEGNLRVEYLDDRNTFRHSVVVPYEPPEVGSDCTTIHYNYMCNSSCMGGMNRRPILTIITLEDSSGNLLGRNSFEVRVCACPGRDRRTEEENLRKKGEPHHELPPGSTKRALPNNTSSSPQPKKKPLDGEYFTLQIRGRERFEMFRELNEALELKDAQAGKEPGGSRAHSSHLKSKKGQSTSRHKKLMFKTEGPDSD

Sequence of MDM2 (Q00987 whole entry): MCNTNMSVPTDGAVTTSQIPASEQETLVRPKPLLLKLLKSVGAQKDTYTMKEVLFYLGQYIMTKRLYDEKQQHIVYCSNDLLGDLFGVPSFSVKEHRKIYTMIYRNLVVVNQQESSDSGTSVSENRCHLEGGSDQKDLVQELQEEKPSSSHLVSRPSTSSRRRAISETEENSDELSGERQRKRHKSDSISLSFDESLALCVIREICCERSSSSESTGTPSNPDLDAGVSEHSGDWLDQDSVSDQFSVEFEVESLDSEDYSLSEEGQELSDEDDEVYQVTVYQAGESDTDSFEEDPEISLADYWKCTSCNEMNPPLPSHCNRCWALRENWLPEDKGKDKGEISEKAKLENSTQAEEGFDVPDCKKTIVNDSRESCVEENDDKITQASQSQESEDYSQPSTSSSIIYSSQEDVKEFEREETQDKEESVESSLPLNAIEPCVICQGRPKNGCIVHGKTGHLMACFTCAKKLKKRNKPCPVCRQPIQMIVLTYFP

- Kd: 46 nM
Substance: MDM2 (from UniProt Q00987)
